Assay results reported in patent publication US20230357447A1 (JANUX THERAPEUTICS, published 2023).

How the values were obtained:
[1] = target: T1, Anti-CD28 scFv (VH-linker 1-VL) (biotinylated for capture on neutravidin plates); assay: phage ELISA, scFv captured on plate;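 note: crude clonal phage supernatants added to wells preincubated with soluble CD28 or with blocking buffer only, bound phage read out by HRP-linked anti-M13 antibody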
Method: (§1) Clonal phage were harvested as crude supernatants and screened via standard enzyme linked immunosorbent assays (ELISAs). […] Prior to the addition of clonal phage, wells were incubated with blocking buffer and CD28 soluble protein or blocking buffer alone. Without washing or aspirating, clonal phage supernatants were then added to the wells and incubated for a short time. Wells were then washed followed by detection of bound phage using a horse radish peroxidase conjugated anti-M13 antibody.

[2] = target: T1, Anti-CD28 scFv (VH-linker 1-VL); assay: phage ELISA, scFv captured on plate, competitor soluble CD28;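 note: crude clonal phage supernatants added to wells pre-incubated with soluble CD28 or with blocking buffer only as control, bound phage read out with HRP-linked anti-M13 antibody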
Method: as §1

T1 sequence (scFv, as listed by the source): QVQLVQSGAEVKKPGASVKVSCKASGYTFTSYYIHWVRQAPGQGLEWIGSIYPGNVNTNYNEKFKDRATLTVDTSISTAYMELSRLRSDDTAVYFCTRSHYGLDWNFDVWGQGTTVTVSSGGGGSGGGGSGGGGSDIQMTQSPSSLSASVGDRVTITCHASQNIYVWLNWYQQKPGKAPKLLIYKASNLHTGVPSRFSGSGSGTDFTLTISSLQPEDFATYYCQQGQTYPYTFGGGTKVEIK

| Binder | Phage binding ELISA CD28 scFv signal [1] | Phage binding ELISA CD28 scFv signal in presence of CD28 [2] |
| --- | --- | --- |
| MDWCPRDLWHVCFF [Phage-121] | 2.41 | 0.268 |
| LDWCPRDLWHVCFF [Phage-178] | 0.61 | 0.105 |
| MDWCPRYLWHECFH [Phage-137] | 2.19 | 0.308 |
| MDWCPSYLWHECFA [Phage-134] | 2.28 | 0.198 |
| MDWCPKHLWHQCFH [Phage-156] | 1.35 | 0.108 |
| MDWCPKFLWHECFS [Phage-135] | 2.28 | 0.142 |
| MDWCPVILWDFCFN [Phage-142] | 2.03 | 0.173 |
| MDWCPRYLWDACFF [Phage-130] | 2.34 | 0.168 |
| MDWCPRDLWIECFF [Phage-128] | 2.37 | 0.137 |
| MDWCPTNLWHECFA [Phage-138] | 2.16 | 0.096 |
| MDWCPRSLWNVCFF [Phage-141] | 2.13 | 0.356 |
| MAWCPMNLWDQCFF [Phage-159] | 1.2 | 0.145 |
| LDWCPLNLWDLCYF [Phage-143] | 2.03 | 0.095 |
| MDFCPISLWHECFF [Phage-151] | 1.58 | 0.129 |
| MDWCPRDLWNVCFA [Phage-154] | 1.38 | 0.145 |
| MDWCPRDLWAVCFA [Phage-149] | 1.67 | 0.089 |
| MDWCPRDLWDVCFA [Phage-139] | 2.16 | 0.28 |
| MDWCPRDLWNVCFN [Phage-169] | 0.74 | 0.108 |
| MDWCPMDLWDVCFN [Phage-140] | 2.15 | 0.263 |
| MDWCPKHLWIECFA [Phage-145] | 1.98 | 0.132 |
| MHWCPRALWHECFN [Phage-160] | 1.18 | 0.144 |
| MDWCPRALWNECFA [Phage-127] | 2.38 | 0.375 |
| MDWCPIHLWNECFA [Phage-123] | 2.4 | 0.203 |
| MDWCPRHLWSECFY [Phage-146] | 1.92 | 0.199 |
| MDWCPRDLWHACFS [Phage-120] | 2.41 | 0.173 |
| MDWCPRSLWIYCFN [Phage-131] | 2.34 | 0.401 |

| Binder | Phage binding ELISA CD28 scFv signal [1] | Phage binding ELISA CD28 scFv signal in presence of CD28 [2] |
| --- | --- | --- |
| MDWCPTYLWFECFN [Phage-132] | 2.33 | 0.224 |
| MDWCPRYLWHMCYS [Phage-119] | 2.42 | 1.17 |
| MHWCPEYLWNECFA [Phage-148] | 1.69 | 0.092 |
| MDWCPVSLWHVCFY [Phage-125] | 2.4 | 0.409 |
| MDWCPRSLWSYCFH [Phage-157] | 1.33 | 0.152 |
| MDWCPRHLWNVCFS [Phage-150] | 1.61 | 0.176 |
| MDWCPRHMWNVCFS [Phage-204] | 2.25 | 0.13 |
| MHWCPIYLWDECFN [Phage-136] | 2.23 | 0.193 |
| MHWCPRYLWDECFN [Phage-180] | 0.55 | 0.127 |
| MDWCPRPLWDMCFF [Phage-124] | 2.4 | 0.138 |
| MDWCPSYLWTVCFA [Phage-129] | 2.34 | 0.096 |
| MDWCPRYLWTECFF [Phage-158] | 1.26 | 0.244 |
| MDWCPRHLWYACFN [Phage-144] | 2.01 | 0.159 |
| MHWCPRDLWVVCFN [Phage-147] | 1.83 | 0.112 |
| MHWCPLHLWNECYH [Phage-155] | 1.37 | 0.113 |
| MDWCPRFLWNECFN [Phage-126] | 2.4 | 0.503 |
| MDWCPRNMWTVCFL [Phage-211] | 1.12 | – |
| MDWCPKYLWDKCFH [Phage-152] | 1.54 | 0.109 |
| MNWCPTDLWHECFN [Phage-162] | 1.09 | 0.095 |
| MDWCPRHLWDECFF [Phage-118] | 2.46 | 0.663 |
| MDWCPRFLWDECFF [Phage-133] | 2.28 | 0.246 |
| MDWCPRHLWDLCFF [Phage-153] | 1.4 | 0.182 |
| MDWCPRHLWDLCFA [Phage-166] | 0.925 | 0.096 |
| MDWCPRHLWDQCFA [Phage-161] | 1.12 | 0.144 |
| MDWCPRYLWFECFS [Phage-117] | 2.46 | 0.235 |
| MDWCPRDLWDQCYA [Phage-122] | 2.41 | 0.201 |
